Measured values as given in US10184140B2, “Materials and methods for production of bi-functional fatty acids in recombinant bacteria” (IOWA STATE UNIVERSITY RESEARCH FOUNDATION, INC., priority 2013, dated 2019).

How the values were obtained:
[1] = Spectrophotometric coupled assay (FabD/FabG, NADPH at 340 nm) of KASIII specific activity with acyl-CoA substrates; conditions: for Specific Activity with Acetyl-CoA: substrate acetyl-CoA; for Specific Activity with Acetyl-CoA / Specific Activity with Isobutyryl-CoA: n.d. = not detectable; for Specific Activity with Isobutyryl-CoA: substrate isobutyryl-CoA
Description: The method comprises (i) incubating holo-ACP, malonyl-CoA, acyl-CoA, NADPH, and malonyl-CoA:ACP transacylase (FabD), (ii) adding KASIII and 3-ketoacyl-ACP reductase (FabG), and (iii) measuring the change in absorbance at 340 nm when NADPH is converted to NADP+ during reduction of 3-ketoacyl-ACP to 3-hydroxyl-acyl ACP by FabG.
Activity of A. acidocaldarius KASIII with different acyl-CoA substrates (acetyl-CoA, isobutyryl-CoA and 3-hydroxybutyryl-CoA (Sigma-Aldrich)) was ascertained by a coupled assay. The assay was performed in 96-well plate format with three replicates for each reaction condition. In a total volume of 100 μl for each reaction the reaction mix containing 100 μM holo-ACP, 200 μM malonyl-CoA, 10 mM DTT, 50 μM acyl-CoA substrate (either acetyl-CoA, isobutyryl-CoA or 3-hydroxy-butyryl-CoA) and 200 μM NADPH in 0.1 M sodium phosphate buffer (pH 7.2) was pre-incubated with 60 μg of FabD for two minutes. The reaction was started by the addition of 30 μg of FabG and varying concentrations of A. acidocaldarius (0.5-15 μg). Change in absorbance of NADPH that was being converted to NADP^+ during reduction of 3-ketoacyl-ACP 3-hydroxy-acyl-ACP by FabG was recorded at 340 nm using a Biotek multi-plate reader.
Spectrophotometric assay was used to assess the activity of A. acidocaldarius KASIII with various acyl-CoA substrates. The assay coupled the appearance of the KASIII-product (3-ketoacyl-ACP) to the oxidation of NADPH, catalyzed by 3-ketoacyl-ACP reductase (FabG).
KASIII enzymatic activity was ascertained via spectrophotometric assay, which coupled the appearance of 3-ketoacyl-ACP to the oxidation of NADPH, using the E. coli FabG protein to reduce 3-ketoacyl-ACP to 3-hydroxyacyl-ACP. The assay was performed in a 96-well plate-format with three technical replicates for each reaction condition. In a total volume of 100 μl for each reaction, the reaction mix contained 100 μM holo-ACP, 200 μM malonyl-CoA, 10 mM DTT, 50 μM acyl-CoA substrate, and 200 μM NADPH in 0.1 M sodium phosphate buffer (pH 7.2). This mixture was pre-incubated with 60 μg of FabD for two minutes to initiate synthesis of malonyl-ACP from malonyl-CoA and holo-ACP. The reaction was then started by the addition of 30 μg of FabG and varying concentrations of KASIII enzyme (0.5-15 μg). As KASIII catalysed the condensation of acyl-CoA with malonyl-ACP to form 3-ketoacyl-ACP, FabG reduced the 3-ketoacyl-ACP intermediate to 3-hydroxy-acyl ACP in the presence of NADPH.

[2] = Saturation Transfer Difference NMR of KASIII enzymes with acetyl-CoA or isobutyryl-CoA; assay type: binding
Description: NMR experiments were performed at 25° C. on a Bruker AV700 MHz spectrometer equipped with a 5 mm HCN cryoprobe. Samples for STD NMR experiments were prepared in 0.1 M sodium phosphate buffer (pH 7.4) with 5% D2O. The protein/ligand ratio was set as 1:100 with KASIII concentration in the 20-25 μM range. Saturation was applied as CW pulse with a power of 58-60 Hz, with on-resonance pulses at 0.62 ppm and 6.86 ppm for upfield and downfield, respectively. The off-resonance pulse was applied at 45 ppm. 3-9-19 WATERGATE suppression was used with a T1-ρ filter. Saturation time of five seconds with an additional delay of 5.1 seconds was used. A set of three replicates was acquired, with 32 scans in each replicate, for each STD NMR experiment of KASIII wild-type or mutated enzyme with a ligand, which was either acetyl-CoA or isobutyryl-CoA (Sigma-Aldrich, St. Louis, Mo.). The reference and the saturated spectra were obtained in an interleaved manner. Resonance assignments of 1H NMR spectra of free ligands were completed using ID 1H and COSY.
Control experiments were carried out by applying on- and off-resonance saturation pulses either to the ligand in the absence of protein, or to the ligand in the presence of denatured protein.
Relative STD effects (ASTD) were calculated according to the equation ASTD=(Io−Isat)/Io where Isat is the signal intensity of the saturated spectrum and Io is the signal intensity of the reference spectrum (Mayer et al., J. Am. Chem. Soc. 123: 6108-6117 (2001)). STD amplification factor was calculated according to the equation: STDaf=ASTD×molar ligand excess.
STD NMR experiments elucidated interactions of these purified enzymes (both wild-type and mutated) with straight-chain substrate (acetyl-CoA) and branched-chain substrate (isobutyryl-CoA) and enabled mapping of binding epitopes on the two substrates. Relative saturation transfer to each of the binding epitopes was measured and converted to the STD amplification factor (STDaf), which is an indicator of ligand binding (Mayer et al., J. Am. Chem. Soc. 123: 6108-6117 (2001)). Ligand epitopes with high STDaf values are assumed to receive higher saturation transfer from the enzyme, and thus are in close contact with the enzyme.

B1: B. subtilis KASIIIa Wild-type: B. subtilis KASIIIA, bfabHA (yjaX) locus, GenBank CAB12974.1, amino acid sequence SEQ ID NO:64 (protein)
chain: MKAGILGVGRYIPEKVLTNHDLEKMVETSDEWIRTRTGIEERRIAADDVFSSHMAVAAAKNALEQAEVAAEDLDMILVATVTPDQSFPTVSCMIQEQLGAKKACAMDISAACAGFMYGVVTGKQFIESGTYKHVLVVGVEKLSSITDWEDRNTAVLFGDGAGAAVVGPVSDDRGILSFELGADGTGGQHLYLNEKRHTIMNGREVFKFAVRQMGESCVNVIEKAGLSKEDVDFLIPHQANIRIMEAARERLELPVEKMSKTVHKYGNTSAASIPISLVEELEAGKIKDGDVVVMVGFGGGLTWGAIAIRWGR
modifications: B. subtilis
Catalytic activity with the isobutyryl-CoA substrate retained ([1]; conserved Phe mutated to Ala, compared with wild-type): about 25% | Specific Activity with Acetyl-CoA [1]: 64 ± 32 nmol/min/mg | Specific Activity with Isobutyryl-CoA [1]: 205 ± 139 nmol/min/mg | Higher saturation of HAP proton of isobutyryl-CoA as compared to the acetyl-CoA HAP proton ([2]; isobutyryl-CoA vs acetyl-CoA): ~28% | STD amplification factor (STDaf), HT proton of acetyl-CoA ([2]; protein/ligand 1:100, 25° C.): 1.5 | STD amplification factor (STDaf), HT proton of isobutyryl-CoA ([2]; protein/ligand 1:100, 25° C.): 1.5

B2: B. subtilis KASIIIa F297A: B. subtilis KASIII containing an F297A mutation, amino acid sequence SEQ ID NO:126 (protein)
chain: MKAGILGVGRYIPEKVLTNHDLEKMVETSDEWIRTRTGIEERRIAADDVFSSHMAVAAAKNALEQAEVAAEDLDMILVATVTPDQSFPTVSCMIQEQLGAKKACAMDISAACAGFMYGVVTGKQFIESGTYKHVLVVGVEKLSSITDWEDRNTAVLFGDGAGAAVVGPVSDDRGILSFELGADGTGGQHLYLNEKRHTIMNGREVFKVAVRQLGESCVNVIEKAGLSKEDVDFLIPHQANIRIMEAARERLELPVEKMSKTVHKYGNTSAASIPISLVEELEAGKIKDGDVVVMVGAGGGLTWGAIAIRWGR
modifications: B. subtilis KASIIIA mutant; (297)..(297) phenylalanine at amino acid position 297 replaced with alanine
Specific Activity with Isobutyryl-CoA [1]: 56 ± 28 nmol/min/mg

B3: B. subtilis KASIIIa F208V_M213L: B. subtilis KASIIIA double mutant F208V_M213L, amino acid sequence SEQ ID NO:124 (protein)
chain: MKAGILGVGRYIPEKVLTNHDLEKMVETSDEWIRTRTGIEERRIAADDVFSSHMAVAAAKNALEQAEVAAEDLDMILVATVTPDQSFPTVSCMIQEQLGAKKACAMDISAACAGFMYGVVTGKQFIESGTYKHVLVVGVEKLSSITDWEDRNTAVLFGDGAGAAVVGPVSDDRGILSFELGADGTGGQHLYLNEKRHTIMNGREVFKVAVRQLGESCVNVIEKAGLSKEDVDFLIPHQANIRIMEAARERLELPVEKMSKTVHKYGNTSAASIPISLVEELEAGKIKDGDVVVMVGFGGGLTWGAIAIRWGR
modifications: B. subtilis KASIIIA double mutant; (208)..(208) phenylalanine at amino acid position 208 replaced with valine; (213)..(213) methionine at amino acid position 213 replaced with leucine
Specific Activity with Isobutyryl-CoA [1]: 17 ± 7 nmol/min/mg

B4: B. subtilis KASIIIa F208V: B. subtilis KASIIIA single mutant F208V, amino acid sequence SEQ ID NO:120 (protein)
chain: MKAGILGVGRYIPEKVLTNHDLEKMVETSDEWIRTRTGIEERRIAADDVFSSHMAVAAAKNALEQAEVAAEDLDMILVATVTPDQSFPTVSCMIQEQLGAKKACAMDISAACAGFMYGVVTGKQFIESGTYKHVLVVGVEKLSSITDWEDRNTAVLFGDGAGAAVVGPVSDDRGILSFELGADGTGGQHLYLNEKRHTIMNGREVFKVAVRQMGESCVNVIEKAGLSKEDVDFLIPHQANIRIMEAARERLELPVEKMSKTVHKYGNTSAASIPISLVEELEAGKIKDGDVVVMVGFGGGLTWGAIAIRWGR
modifications: B. subtilis KASIIIA mutant; (208)..(208) phenylalanine at amino acid position 208 replaced with valine
Decrease in saturation transfer/STDaf for isobutyryl-CoA HT and HB protons in comparison to the wild-type ([2]; mutant vs wild-type): ~40%

B5: E. coli KASIII F304A (protein)
chain: MYTKIIGTGSYLPEQVRTNADLEKMVDTSDEWIVTRTGIRERHIAAPNETVSTMGFEAATRAIEMAGIEKDQIGLIVVATTSATHAFPSAACQIQSMLGIKGCPAFDVAAACAGFTYALSVADQYVKSGAVKYALVVGSDVLARTCDPTDRGTIIIFGDGAGAAVLAASEEPGIISTHLHADGSYGELLTLPNADRVNPENSIHLTMAGNEVFKFAVTEMAHIVDETLAANNLDRSQLDWLVPHQANLRIISATAKKLGMSMDNVVVTLDRHGNTSAASVPCALDEAVRDGRIKPGQLVLLEAAGGGFTWGSALVRF
modifications: E. coli mutant; (304)..(304) phenylalanine at amino acid position 304 replaced with alanine
Lower saturation transfer to the HT protons of acetyl-CoA and isobutyryl-CoA compared to the wild-type ([2]; mutant vs wild-type): approximately 60%

B6: E. coli KASIII V215F_L220M: E. coli KASIII double mutant V215F_L220M, amino acid sequence SEQ ID NO:116 (protein)
chain: MYTKIIGTGSYLPEQVRTNADLEKMVDTSDEWIVTRTGIRERHIAAPNETVSTMGFEAATRAIEMAGIEKDQIGLIVVATTSATHAFPSAACQIQSMLGIKGCPAFDVAAACAGFTYALSVADQYVKSGAVKYALVVGSDVLARTCDPTDRGTIIIFGDGAGAAVLAASEEPGIISTHLHADGSYGELLTLPNADRVNPENSIHLTMAGNEVFKFAVTEMAHIVDETLAANNLDRSQLDWLVPHQANLRIISATAKKLGMSMDNVVVTLDRHGNTSAASVPCALDEAVRDGRIKPGQLVLLEAFGGGFTWGSALVRF
modifications: E. coli mutant; (215)..(215) valine at amino acid position 215 replaced with phenylalanine; (220)..(220) leucine at amino acid position 220 replaced with methionine
Specific Activity with Acetyl-CoA [1]: 221 ± 104 nmol/min/mg | Specific Activity with Isobutyryl-CoA [1]: 18 ± 5 nmol/min/mg

B7: B. subtilis KASIIIb W221V: B. subtilis KASIIIB single mutant W221V, amino acid sequence SEQ ID NO:128 (protein)
chain: MSKAKITAIGTYAPSRRLTNADLEKIVDTSDEWIVQRTGMRERRIADEHQFTSDLCIEAVKNLKSRYKGTLDDVDMILVATTTSDYAFPSTACRVQEYFGWESTGALDINATCAGLTYGLHLANGLITSGLHQKILVIAGETLSKVTDYTDRTTCVLFGDAAGALLVERDEETPGFLASVQGTSGNGGDILYRAGLRNEINGVQLVGSGKMVQNGREVYKVAARTVPGEFERLLHKAGLSSDDLDWFVPHSANLRMIESICEKTPFPIEKTLTSVEHYGNTSSVSIVLALDLAVKAGKLKKDQIVLLFGFGGGLTYTGLLIKWGM
modifications: B. subtilis KASIIIB mutant; (221)..(221) tryptophan at amino acid position 221 replaced with valine
Specific Activity with Isobutyryl-CoA [1]: completely eliminated activity

B8: B. subtilis KASIIIb V226L: B. subtilis KASIIIB single mutant V226L, amino acid sequence SEQ ID NO:130 (protein)
chain: MSKAKITAIGTYAPSRRLTNADLEKIVDTSDEWIVQRTGMRERRIADEHQFTSDLCIEAVKNLKSRYKGTLDDVDMILVATTTSDYAFPSTACRVQEYFGWESTGALDINATCAGLTYGLHLANGLITSGLHQKILVIAGETLSKVTDYTDRTTCVLFGDAAGALLVERDEETPGFLASVQGTSGNGGDILYRAGLRNEINGVQLVGSGKMVQNGREVYKWAARTLPGEFERLLHKAGLSSDDLDWFVPHSANLRMIESICEKTPFPIEKTLTSVEHYGNTSSVSIVLALDLAVKAGKLKKDQIVLLFGFGGGLTYTGLLIKWGM
modifications: B. subtilis KASIIIB mutant; (226)..(226) valine at amino acid position 226 replaced with leucine
Loss of activity with isobutyryl-CoA ([1]; mutant compared with wild-type enzyme): approximately 50% | Specific Activity with Isobutyryl-CoA [1]: 134 ± 6 nmol/min/mg
